Molecular target: SARS-CoV-2 viral particles (spike protein as shown on the whole virus) (SARS-CoV-2)

## recombinant griffithsin lectin protein (rGRFT) (from UniProt P84801 1-121) (natural protein)
  IC50 of rGRFT on SARS-CoV-2 (Ank2, Wuhan like) infection of Vero E6 cells, cytopathic effect reading; rGRFT from 6 uM to 15.4 pM mixed with infectious particles: 0.0332 µM

Reference: PMC9017247
